Results on 4 proteins are retold here after paper PMC8236860, “Regulation of Dual Activity of Ascorbate Peroxidase 1 From Arabidopsis thaliana by Conformational Changes and Posttranslational Modifications” (Frontiers in Plant Science, 2021).

By stoichiometry N is commonly meant a count of units in the complex or per binding partner.

The series concerns the molecule itself. Description: native gel or EMSA; 10% native-PAGE of purified recombinant AtAPX1 (total protein, SEC fractions F1-F3, and protein treated with GSNO, NaHS or SIN-1). For orientation: A gel shift assay detects complexes by their altered migration in electrophoresis.

B1: Cytosol type APX1 from Arabidopsis thaliana (AtAPX1), recombinant (enzyme, UniProt Q05431 1-250, looked up)
chain: MTKNYPTVSEDYKKAVEKCRRKLRGLIAEKNCAPIMVRLAWHSAGTFDCQSRTGGPFGTMRFDAEQAHGANSGIHIALRLLDPIREQFPTISFADFHQLAGVVAVEVTGGPDIPFHPGREDKPQPPPEGRLPDATKGCDHLRDVFAKQMGLSDKDIVALSGAHTLGRCHKDRSGFEGAWTSNPLIFDNSYFKELLSGEKEGLLQLVSDKALLDDPVFRPLVEKYAADEDAFFADYAEAHMKLSELGFADA
notes: Ascorbate peroxidase 1, cytosolic (AtAPX1), Arabidopsis thaliana; 27 kDa on SDS-PAGE; Heme enzyme; also called ascorbate peroxidase 1; recombinant AtAPX1 protein; source: E. coli BL21 (DE3), pET28a, purified (Ni-NTA, thrombin cleavage of the His-tag, SEC)
Consider B1, for which the “stoichiometry N” value was 2.

B2: S-sulfhydrated recombinant AtAPX1 (NaHS-treated) (enzyme, Arabidopsis thaliana, UniProt Q05431 1-250, looked up)
chain: MTKNYPTVSEDYKKAVEKCRRKLRGLIAEKNCAPIMVRLAWHSAGTFDCQSRTGGPFGTMRFDAEQAHGANSGIHIALRLLDPIREQFPTISFADFHQLAGVVAVEVTGGPDIPFHPGREDKPQPPPEGRLPDATKGCDHLRDVFAKQMGLSDKDIVALSGAHTLGRCHKDRSGFEGAWTSNPLIFDNSYFKELLSGEKEGLLQLVSDKALLDDPVFRPLVEKYAADEDAFFADYAEAHMKLSELGFADA
modifications: S-sulfhydration of cysteine (NaHS treatment); positions not determined in this paper
notes: Ascorbate peroxidase 1, cytosolic (AtAPX1), Arabidopsis thaliana; same construct as m1; not mapped here; also called NaHS-treated AtAPX1; source: E. coli BL21 (DE3), purified, then incubated with NaHS (10 nM-100 μM) at 4°C for 30 min in the dark
On to B2, for which the binding result was “binds”.

B3: Tyrosine-nitrated recombinant AtAPX1 (SIN-1-treated) (enzyme, Arabidopsis thaliana, UniProt Q05431 1-250, looked up)
chain: MTKNYPTVSEDYKKAVEKCRRKLRGLIAEKNCAPIMVRLAWHSAGTFDCQSRTGGPFGTMRFDAEQAHGANSGIHIALRLLDPIREQFPTISFADFHQLAGVVAVEVTGGPDIPFHPGREDKPQPPPEGRLPDATKGCDHLRDVFAKQMGLSDKDIVALSGAHTLGRCHKDRSGFEGAWTSNPLIFDNSYFKELLSGEKEGLLQLVSDKALLDDPVFRPLVEKYAADEDAFFADYAEAHMKLSELGFADA
modifications: tyrosine nitration (SIN-1 treatment); positions not determined in this paper
notes: Ascorbate peroxidase 1, cytosolic (AtAPX1), Arabidopsis thaliana; same construct as m1; also called SIN-1-treated protein; source: E. coli BL21 (DE3), purified, then incubated with SIN-1 (0-10 mM) at 37°C for 1 h in the dark
Take B3: the binding result is listed as “binds”.

B4: S-nitrosylated recombinant AtAPX1 (GSNO-treated) (enzyme, Arabidopsis thaliana, UniProt Q05431 1-250, looked up)
chain: MTKNYPTVSEDYKKAVEKCRRKLRGLIAEKNCAPIMVRLAWHSAGTFDCQSRTGGPFGTMRFDAEQAHGANSGIHIALRLLDPIREQFPTISFADFHQLAGVVAVEVTGGPDIPFHPGREDKPQPPPEGRLPDATKGCDHLRDVFAKQMGLSDKDIVALSGAHTLGRCHKDRSGFEGAWTSNPLIFDNSYFKELLSGEKEGLLQLVSDKALLDDPVFRPLVEKYAADEDAFFADYAEAHMKLSELGFADA
modifications: S-nitrosylation of cysteine (GSNO treatment); positions not determined in this paper
notes: Ascorbate peroxidase 1, cytosolic (AtAPX1), Arabidopsis thaliana; same construct as m1; not mapped here; also called S-nitrosylated APX1; GSNO-treated AtAPX1; source: E. coli BL21 (DE3), purified, then incubated with GSNO (0-1 mM) at 25°C for 30 min in the dark
As for B4, the binding result is listed as “binds”.
